In the supplement of paper PMC10899765:

How the values were obtained:
Settings in all cases: 20 nM; 72 h
MCF10A [1] = test: percent viability (nuclei count relative to siNT); higher = more viable cells
Procedure: (§1)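 After 72 h, cells were fixed and stained with Hoechst and anti-fibrillarin, and nucleoli per nucleus were counted with CellProfiler. Values are plate-adjusted percent effect for the one-nucleolus and 5+ nucleoli phenotypes, normalised to siNT (0%) and to the positive controls siNOL11 or siKIF11 (100%), as the mean of biological triplicates. Percent viability is the nuclei count relative to siNT.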

MCF10A [2] = test: 5+ nucleoli phenotype percent effect (relative to siNT 0% and siKIF11 100%); higher = more cells with five or more nucleoli
Procedure: as §1

MCF10A [3] = test: one-nucleolus phenotype percent effect (relative to siNT 0% and siNOL11 100%); higher = more cells with one nucleolus (ribosome biogenesis inhibition)
Procedure: as §1

| Sequence | percent viability (MCF10A [1]) | 5+ nucleoli phenotype percent effect (MCF10A [2]) | one-nucleolus phenotype percent effect (MCF10A [3]) |
| --- | --- | --- | --- |
| GGGUGAGGGCAGGUGGUU [hsa-miR-4710] | 19.2% | 22.2% | 17.1% |
| GCUGGGCGAGGCUGGCA [hsa-miR-4486] | 38.6% | 3.78% | 19.5% |
| UGAUAUGUUUGAUAUAUUAGGU [hsa-miR-190a] | 116% | 47.6% | -13.2% |
| GGGAAAAGGAAGGGGGAGGA [hsa-miR-6124] | 180% | 53.1% | -29.7% |
| UAGCAAAAACUGCAGUUACUUU [hsa-miR-548p] | 114% | 17.2% | -21.8% |
| UUCCUAUGCAUAUACUUCUUUG [hsa-miR-202-5p] | 72.7% | 12.8% | -12.4% |
| CUUAUCAGAUUGUAUUGUAAUU [hsa-miR-374a-3p] | 160% | 33% | -24.3% |
| UAAUCCUUGCUACCUGGGUGAGA [hsa-miR-500a-5p] | 55% | -16.1% | 19.3% |
| AAGCCCUUACCCCAAAAAGCAU [hsa-miR-129-2-3p] | 64.7% | -31.7% | 24% |
| UUGCUCACUGUUCUUCCCUAG [hsa-miR-1178-3p] | 50.3% | -31.4% | 0.794% |
| GGGGUGGUCUGUUGUUG [hsa-miR-4483] | 5.44% | 44.6% | -25.2% |
| UUCACAGUGGCUAAGUUCCGC [hsa-miR-27a-3p] | 118% | -6.22% | -7.64% |
| GGGAGAAGGGUCGGGGC [hsa-miR-4516] | 94.1% | 31.9% | -25.4% |
| GGCGGAGGGAAGUAGGUCCGUUGGU [hsa-miR-658] | 63% | 5.47% | -9.25% |
| UGGCCAAAAAGCAGGCAGAGA [hsa-miR-3926] | 31.6% | 0.491% | 11.5% |
| UAACAGUCUACAGCCAUGGUCG [hsa-miR-132-3p] | 112% | -13.6% | -5.13% |
| UGUGGUAGAUAUAUGCACGAU [hsa-miR-4536-5p] | 25.9% | -25.4% | 26.2% |
| UUAGUGCAUAGUCUUUGGUCU [hsa-miR-4671-3p] | 85.2% | 47.6% | -12% |
| CCAGUGACUGAGCUGGAGCCA [hsa-miR-5190] | 31.7% | -11.4% | 29.3% |
| AACACUGGCCUUGCUAUCCCCA [hsa-miR-6757-3p] | 52.1% | -35% | 30.1% |
| UUCACAUUGUGCUACUGUCUGC [hsa-miR-130a-5p] | 124% | 19% | -14.6% |
| ACUCAAAAGAUGGCGGCACUUU [hsa-miR-371b-5p] | 96.1% | 19.5% | -20.5% |
| CUCCUACAUAUUAGCAUUAACA [hsa-miR-155-3p] | 119% | 6.71% | -5.11% |
| CGCGGGCGCUCCUGGCCGCCGCC [hsa-miR-4767] | 58.8% | 26.9% | -12.9% |

| Sequence | percent viability (MCF10A [1]) | 5+ nucleoli phenotype percent effect (MCF10A [2]) | one-nucleolus phenotype percent effect (MCF10A [3]) |
| --- | --- | --- | --- |
| AAUUGCACGGUAUCCAUCUGUA [hsa-miR-363-3p] | 63.9% | -15.8% | 5.76% |
| UGUGAUAUCGUGCUUCCUGGGA [hsa-miR-3689f] | 109% | 17.5% | -21.8% |
| CCAAAUCUUGAUCAGAAGCCU [hsa-miR-4762-5p] | 106% | 26.6% | -8.43% |
| AUGGCCAGAGCUCACACAGAGG [hsa-miR-4435] | 68% | 40.9% | -11.4% |
| CUCUAGAGGGAAGCGCUUUCUG [hsa-miR-518e-5p] | 26.7% | 3.26% | -0.877% |
| CACACAUAGCAGGUGUAUAUA [hsa-miR-4789-3p] | 67.3% | 39.4% | -24.6% |
| UUGCAUAGUCACAAAAGUGAUC [hsa-miR-153] | 116% | 83% | -31.1% |
| CCUCCCACACCCAAGGCUUGCA [hsa-miR-532-3p] | 38.6% | 23.9% | 5.19% |
| AGUGGGGAACCCUUCCAUGAGG [hsa-miR-491-5p] | 10.1% | -46.6% | 47.1% |
| ACUGGGAUGUCACUGAAUAUGGU [hsa-miR-6506-5p] | 28.3% | -3.32% | 25% |
| GUGCCACCUUAACUGCAGCCAAU [hsa-miR-4715-3p] | 53.4% | -23.5% | 6.34% |
| AGGAGAGUGGAUUCCAGGUGGU [hsa-miR-5192] | 24.2% | 20.1% | 10.4% |
| UCCCUCGCCUUCUCACCCUCAG [hsa-miR-6803-3p] | 58.1% | 25.3% | -18.8% |
| UAUCUGCUGGGCUUUCUGGUGUU [hsa-miR-4686] | 34.5% | -43.3% | 43.6% |
| GGGGGGUGUGGAGCCAGGGGGC [hsa-miR-6752-5p] | 79.1% | 41.7% | -21.9% |
| ACGUUUGAAUGCUGUACAAGGC [hsa-miR-5707] | 185% | 56.2% | -26.7% |
| UUGGAAGCUUGGACCAACUAGCUG [hsa-miR-6079] | 31.5% | -27.8% | 28.7% |
| CCUCCUGAUGAUUCUUCUUC [hsa-miR-3653-5p] | 159% | 32.7% | -22.7% |
| UCGGGGCAUGGGGGAGGGAGGCUGG [hsa-miR-6775-5p] | 57.8% | 35.1% | -21.8% |
| UGGUGGAGGAAGAGGGCAGCUC [hsa-miR-6880-5p] | 3.74% | -19.7% | -4.17% |
| UCAGCAUUCAUUGGCACCAGAGA [hsa-miR-7157-5p] | 30.6% | -18.8% | 13.5% |
| UGGGCCAUGCAUUUCUAGAACU [hsa-miR-6508-3p] | 40.2% | -35% | 41.6% |
| UCUGGGGUCUUGGGCCAUC [hsa-miR-7155-5p] | 10.2% | -0.455% | 34.2% |
| UGGGGGAGUGCAGUGAUUGUGG [hsa-miR-5698] | 161% | 43.2% | -25.1% |
